Consider one substance from PMC11294389.

Experiment [1] addresses GFP-Atx3 15Q (human) (UniProt P54252). Kind of experiment: co-IP; GFP-Trap agarose precipitates GFP-Atx3 from extracts of co-transfected 293T WT cells (1000 µg total protein, 20 µL bead slurry, 4 °C, 1 h); co-precipitated parkin detected by western blot and quantified by densitometry, n = 3. On the technique in general: In western blotting, separated proteins are transferred to a membrane and probed.

In experiment [2] the target is GFP-Atx3 77Q (human) (UniProt P54252). Described as above.

For “6xMyc-parkin V380L (from UniProt O60260-1 1-465) (natural protein)”, the reduction of co-precipitated parkin against parkin WT in experiment [1] was 87%; in experiment [2] it was 62%.
